Experimental data taken from US20200199241A1 (Chugai, published 2020).

B1: IgG1-F715 (antibody)
heavy: QVQLQESGPGLVKPSETLSLTCAVSGHSISHDHAWSWVRQPPGEGLEWIGFISYSGITNYNPSLQGRVTISRDNSKNTLYLQMNSLRAEDTAVYYCARSLARTTAMDYWGEGTLVTVSSASTKGPSVFPLAPSSKSTSGGTAALGCLVKDYFPEPVTVSWNSGALTSGVHTFPAVLQSSGLYSLSSVVTVPSSSLGTQTYICNVNHKPSNTKVDKKVEPKSCDKTHTCPPCPAPELLGGDSVFLFPPKPKDTLYISRTPEVTCVVVDVSHEDPEVKFNWYVDGVEVHNAKTKPREEQYNSTYRVVSVLTVLHQDWLNGKEYKCKVSMKALPAPIEKTISKAKGQPREPQVYTLPPSRDELTKNQVSLTCLVKGFYPSDIAVEWESNGQPENNYKTTPPVLDSDGSFFLYSKLTVDKSRWQQGNVFSCSVMHEALHYHYTQKSLSLSP
light: not shown
notes: EU numbering; copies: 2 + 2
B2: IgG1-F716 (antibody)
heavy: QVQLQESGPGLVKPSETLSLTCAVSGHSISHDHAWSWVRQPPGEGLEWIGFISYSGITNYNPSLQGRVTISRDNSKNTLYLQMNSLRAEDTAVYYCARSLARTTAMDYWGEGTLVTVSSASTKGPSVFPLAPSSKSTSGGTAALGCLVKDYFPEPVTVSWNSGALTSGVHTFPAVLQSSGLYSLSSVVTVPSSSLGTQTYICNVNHKPSNTKVDKKVEPKSCDKTHTCPPCPAPELLGGDSVFLFPPKPKDTLYISRTPEVTCVVVDVSHEDPEVKFNWYVDGVEVHNAKTKPREEQYNSTYRVVSVLTVLHQDWLNGKEYKCKVSLKALPAPIEKTISKAKGQPREPQVYTLPPSRDELTKNQVSLTCLVKGFYPSDIAVEWESNGQPENNYKTTPPVLDSDGSFFLYSKLTVDKSRWQQGNVFSCSVMHEALHYHYTQKSLSLSP
light: not shown
notes: EU numbering; copies: 2 + 2
B3: IgG1-F717 (antibody)
heavy: QVQLQESGPGLVKPSETLSLTCAVSGHSISHDHAWSWVRQPPGEGLEWIGFISYSGITNYNPSLQGRVTISRDNSKNTLYLQMNSLRAEDTAVYYCARSLARTTAMDYWGEGTLVTVSSASTKGPSVFPLAPSSKSTSGGTAALGCLVKDYFPEPVTVSWNSGALTSGVHTFPAVLQSSGLYSLSSVVTVPSSSLGTQTYICNVNHKPSNTKVDKKVEPKSCDKTHTCPPCPAPELLGGDSVFLFPPKPKDTLYISRTPEVTCVVVDVSHEDPEVKFNWYVDGVEVHNAKTKPREEQYNSTYRVVSVLTVLHQDWLNGKEYKCKVSIKALPAPIEKTISKAKGQPREPQVYTLPPSRDELTKNQVSLTCLVKGFYPSDIAVEWESNGQPENNYKTTPPVLDSDGSFFLYSKLTVDKSRWQQGNVFSCSVMHEALHYHYTQKSLSLSP
light: not shown
notes: EU numbering; copies: 2 + 2
B4: IgG1-F718 (antibody)
heavy: QVQLQESGPGLVKPSETLSLTCAVSGHSISHDHAWSWVRQPPGEGLEWIGFISYSGITNYNPSLQGRVTISRDNSKNTLYLQMNSLRAEDTAVYYCARSLARTTAMDYWGEGTLVTVSSASTKGPSVFPLAPSSKSTSGGTAALGCLVKDYFPEPVTVSWNSGALTSGVHTFPAVLQSSGLYSLSSVVTVPSSSLGTQTYICNVNHKPSNTKVDKKVEPKSCDKTHTCPPCPAPELLGGDSVFLFPPKPKDTLYISRTPEVTCVVVDVSHEDPEVKFNWYVDGVEVHNAKTKPREEMYNSTYRVVSVLTVLHQDWLNGKEYKCKVSNKALPAPIEKTISKAKGQPREPQVYTLPPSRDELTKNQVSLTCLVKGFYPSDIAVEWESNGQPENNYKTTPPVLDSDGSFFLYSKLTVDKSRWQQGNVFSCSVMHEALHYHYTQKSLSLSP
light: not shown
notes: EU numbering; copies: 2 + 2
B5: IgG1-F719 (antibody)
heavy: QVQLQESGPGLVKPSETLSLTCAVSGHSISHDHAWSWVRQPPGEGLEWIGFISYSGITNYNPSLQGRVTISRDNSKNTLYLQMNSLRAEDTAVYYCARSLARTTAMDYWGEGTLVTVSSASTKGPSVFPLAPSSKSTSGGTAALGCLVKDYFPEPVTVSWNSGALTSGVHTFPAVLQSSGLYSLSSVVTVPSSSLGTQTYICNVNHKPSNTKVDKKVEPKSCDKTHTCPPCPAPELLGGDSVFLFPPKPKDTLYISRTPEVTCVVVDVSHEDPEVKFNWYVDGVEVHNAKTKPREEQYNSTYRVVSVLTVLHQDWLNGKEYKCKVSGKALPAPIEKTISKAKGQPREPQVYTLPPSRDELTKNQVSLTCLVKGFYPSDIAVEWESNGQPENNYKTTPPVLDSDGSFFLYSKLTVDKSRWQQGNVFSCSVMHEALHYHYTQKSLSLSP
light: not shown
notes: EU numbering; copies: 2 + 2
B6: IgG1-F720 (antibody)
heavy: QVQLQESGPGLVKPSETLSLTCAVSGHSISHDHAWSWVRQPPGEGLEWIGFISYSGITNYNPSLQGRVTISRDNSKNTLYLQMNSLRAEDTAVYYCARSLARTTAMDYWGEGTLVTVSSASTKGPSVFPLAPSSKSTSGGTAALGCLVKDYFPEPVTVSWNSGALTSGVHTFPAVLQSSGLYSLSSVVTVPSSSLGTQTYICNVNHKPSNTKVDKKVEPKSCDKTHTCPPCPAPELLGGPSVFLFPPKPKDTLYISRTPEVTCVVVDVSHEDPEVKFNWYVDGVEVHNAKTKPREEQYNSTYRVVSVLQPLHADWLNGKEYKCKVSNKALPAPIEKTISKAKGQPREPQVYTLPPSRDELTKNQVSLTCLVKGFYPSDIAVEWESNGQPENNYKTTPPVLDSDGSFFLYSKLTVDKSRWQQGNVFSCSVMHEALHYHYTQKSLSLSP
light: not shown
notes: EU numbering; copies: 2 + 2
B7: IgG1-F721 (antibody)
heavy: QVQLQESGPGLVKPSETLSLTCAVSGHSISHDHAWSWVRQPPGEGLEWIGFISYSGITNYNPSLQGRVTISRDNSKNTLYLQMNSLRAEDTAVYYCARSLARTTAMDYWGEGTLVTVSSASTKGPSVFPLAPSSKSTSGGTAALGCLVKDYFPEPVTVSWNSGALTSGVHTFPAVLQSSGLYSLSSVVTVPSSSLGTQTYICNVNHKPSNTKVDKKVEPKSCDKTHTCPPCPAPELLGGPSVFLFPPKPKDTLYISRTPEVTCVVVDVSHEDPEVKFNWYVDGVEVHNAKTKPREEQYNSTYRVVSVLQPLHADWLNGKEYKCKVSNKALPAPIEKTISKAKGQPREPQVYTLPPSRDELTKNQVSLTCLVKGFYPSDIAVEWESNGQPENNYKTTPPVLDSDGSFFLYSKLTVDKSRWQQGNVFSCSVIHEALHYHYTQKSLSLSP
light: not shown
notes: EU numbering; copies: 2 + 2
B8: IgG1-F723 (antibody)
heavy: QVQLQESGPGLVKPSETLSLTCAVSGHSISHDHAWSWVRQPPGEGLEWIGFISYSGITNYNPSLQGRVTISRDNSKNTLYLQMNSLRAEDTAVYYCARSLARTTAMDYWGEGTLVTVSSASTKGPSVFPLAPSSKSTSGGTAALGCLVKDYFPEPVTVSWNSGALTSGVHTFPAVLQSSGLYSLSSVVTVPSSSLGTQTYICNVNHKPSNTKVDKKVEPKSCDKTHTCPPCPAPELLGGDSVFLFPPKPKDTLYISRTPEVTCVVVDVSHEDPEVKFNWYVDGVEVHNAKTKPREEQYNSTYRVVSVLTVLHQDWLNGKEYKCKVSNKADPAPIEKTISKAKGQPREPQVYTLPPSRDELTKNQVSLTCLVKGFYPSDIAVEWESNGQPENNYKTTPPVLDSDGSFFLYSKLTVDKSRWQQGNVFSCSVMHEALHYHYTQKSLSLSP
light: not shown
notes: EU numbering; copies: 2 + 2
B9: IgG1-F724 (antibody)
heavy: QVQLQESGPGLVKPSETLSLTCAVSGHSISHDHAWSWVRQPPGEGLEWIGFISYSGITNYNPSLQGRVTISRDNSKNTLYLQMNSLRAEDTAVYYCARSLARTTAMDYWGEGTLVTVSSASTKGPSVFPLAPSSKSTSGGTAALGCLVKDYFPEPVTVSWNSGALTSGVHTFPAVLQSSGLYSLSSVVTVPSSSLGTQTYICNVNHKPSNTKVDKKVEPKSCDKTHTCPPCPAPELLGGDSVFLFPPKPKDTLYISRTPEVTCVVVDVSHEDPEVKFNWYVDGVEVHNAKTKPREEQYNSTYRVVSVLTVLHQDWLNGKEYKCKVSNKAEPAPIEKTISKAKGQPREPQVYTLPPSRDELTKNQVSLTCLVKGFYPSDIAVEWESNGQPENNYKTTPPVLDSDGSFFLYSKLTVDKSRWQQGNVFSCSVMHEALHYHYTQKSLSLSP
light: not shown
notes: EU numbering; copies: 2 + 2
B10: IgG1-F725 (antibody)
heavy: QVQLQESGPGLVKPSETLSLTCAVSGHSISHDHAWSWVRQPPGEGLEWIGFISYSGITNYNPSLQGRVTISRDNSKNTLYLQMNSLRAEDTAVYYCARSLARTTAMDYWGEGTLVTVSSASTKGPSVFPLAPSSKSTSGGTAALGCLVKDYFPEPVTVSWNSGALTSGVHTFPAVLQSSGLYSLSSVVTVPSSSLGTQTYICNVNHKPSNTKVDKKVEPKSCDKTHTCPPCPAPELKGRPKVFLFPPKPKDTLYISRTPEVTCVVVDVSHEDPEVKFNWYVDGVEVHNAKTKPREEQYNSTYRVVSVLTPLHQDWLNGKEYKCKVSNKALPAPIEKTISKAKGQPREPQVYTLPPSRDELTKNQVSLTCLVKGFYPSDIAVEWESNGQPENNYKTTPPVLDSDGSFFLYSKLTVDKSRWQQGNVFSCSVMHEALHYHYTQKSLSLSP
light: not shown
notes: EU numbering; copies: 2 + 2
B11: IgG1-F726 (antibody)
heavy: QVQLQESGPGLVKPSETLSLTCAVSGHSISHDHAWSWVRQPPGEGLEWIGFISYSGITNYNPSLQGRVTISRDNSKNTLYLQMNSLRAEDTAVYYCARSLARTTAMDYWGEGTLVTVSSASTKGPSVFPLAPSSKSTSGGTAALGCLVKDYFPEPVTVSWNSGALTSGVHTFPAVLQSSGLYSLSSVVTVPSSSLGTQTYICNVNHKPSNTKVDKKVEPKSCDKTHTCPPCPAPELKGGKKVFLFPPKPKDTLYISRTPEVTCVVVDVSHEDPEVKFNWYVDGVEVHNAKTKPREEQYNSTYRVVSVLTPLHQDWLNGKEYKCKVSNKALPAPIEKTISKAKGQPREPQVYTLPPSRDELTKNQVSLTCLVKGFYPSDIAVEWESNGQPENNYKTTPPVLDSDGSFFLYSKLTVDKSRWQQGNVFSCSVMHEALHYHYTQKSLSLSP
light: not shown
notes: EU numbering; copies: 2 + 2
B12: IgG1-F729 (antibody)
heavy: QVQLQESGPGLVKPSETLSLTCAVSGHSISHDHAWSWVRQPPGEGLEWIGFISYSGITNYNPSLQGRVTISRDNSKNTLYLQMNSLRAEDTAVYYCARSLARTTAMDYWGEGTLVTVSSASTKGPSVFPLAPSSKSTSGGTAALGCLVKDYFPEPVTVSWNSGALTSGVHTFPAVLQSSGLYSLSSVVTVPSSSLGTQTYICNVNHKPSNTKVDKKVEPKSCDKTHTCPPCPAPELLGGPSVFLFPPKPKDTLMISRTPEVTCVVVDVSHEDPEVKFNWYVDGVEVHNAKTKPREEQYNSTYRVVSVLAVLHADWLNGKEYKCKVSNKALPAPIEKTISKAKGQPREPQVYTLPPSRDELTKNQVSLTCLVKGFYPSDIAVEWESNGQPENNYKTTPPVLDSDGSFFLYSKLTVDKSRWQQGNVFSCSVMHEALHYHYTQKSLSLSP
light: not shown
notes: EU numbering; copies: 2 + 2
B13: IgG1-F730 (antibody)
heavy: QVQLQESGPGLVKPSETLSLTCAVSGHSISHDHAWSWVRQPPGEGLEWIGFISYSGITNYNPSLQGRVTISRDNSKNTLYLQMNSLRAEDTAVYYCARSLARTTAMDYWGEGTLVTVSSASTKGPSVFPLAPSSKSTSGGTAALGCLVKDYFPEPVTVSWNSGALTSGVHTFPAVLQSSGLYSLSSVVTVPSSSLGTQTYICNVNHKPSNTKVDKKVEPKSCDKTHTCPPCPAPELLGGPSVFLFPPKPKDTLMISRTPEVTCVVVDVSHEDPEVKFNWYVDGVEVHNAKTKPREEQYNSTYRVVSVLQVLHADWLNGKEYKCKVSNKALPAPIEKTISKAKGQPREPQVYTLPPSRDELTKNQVSLTCLVKGFYPSDIAVEWESNGQPENNYKTTPPVLDSDGSFFLYSKLTVDKSRWQQGNVFSCSVMHEALHYHYTQKSLSLSP
light: not shown
notes: EU numbering; copies: 2 + 2

molecular target: T1, human FcRn (soluble human FcRn complexed with β2-microglobulin) (human, UniProt P61769 21-119, limits assumed); assay: SPR, pH 7.0;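 also: antibodies captured on a Protein L sensor chip with human FcRn injected as analyte, KD calculated from fitted association and dissociation rate constants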
T1 construct: also called hFcRn
T1 sequence (chain, as listed by the source limits assumed, chain 1 of 2): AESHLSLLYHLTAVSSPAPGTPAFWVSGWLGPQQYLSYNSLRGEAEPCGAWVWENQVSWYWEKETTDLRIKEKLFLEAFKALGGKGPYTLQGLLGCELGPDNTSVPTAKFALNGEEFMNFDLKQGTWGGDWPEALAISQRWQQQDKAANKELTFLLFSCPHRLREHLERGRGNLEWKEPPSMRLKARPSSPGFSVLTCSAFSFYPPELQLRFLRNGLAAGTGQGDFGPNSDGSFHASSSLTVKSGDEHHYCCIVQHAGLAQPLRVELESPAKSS
T1 sequence (P61769 21-119 limits assumed, chain 2 of 2): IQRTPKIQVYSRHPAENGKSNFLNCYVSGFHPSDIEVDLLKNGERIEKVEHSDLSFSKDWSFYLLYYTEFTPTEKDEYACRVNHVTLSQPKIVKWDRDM

B1 was tested. Which Kd did it give?
The Kd was 230 nM.

Which Kd does the source give for B2 here?
Its Kd is 270 nM.

B3 was tested. Which Kd did it give?
The Kd was 260 nM.

How did the Kd turn out when B4 was run?
Its Kd is 280 nM.

B5 was tested. Which Kd did it give?
Its Kd is 74 nM.

With B6 as the binder, how does the Kd read?
The Kd was 24 nM.

For B7, which Kd is on record?
The Kd was 15 nM.

B8 was tested. Which Kd did it give?
Its Kd is 280 nM.

B9 was tested. Which Kd did it give?
Its Kd is 250 nM.

Which Kd does the source give for B10 here?
The Kd was 42 nM.

B11 was tested. Which Kd did it give?
The Kd was 37 nM.

With B12 as the binder, how does the Kd read?
The Kd was 920 nM.

For B13, which Kd is on record?
Its Kd is 600 nM.
